Data set [1] concerns the target PTDH-PCNA1_(G108C)-PdR (Pseudomonas stutzeri | Sulfolobus solfataricus | Pseudomonas putida). Put plainly: SEC; non-denatured fusion proteins, masses estimated against globular protein standards.
Data set [2] shares this target. Put plainly: dynamic light scattering; diameters of the PTDH-fused proteins compared with their counterparts without PTDH fusion.
The target of data set [3] is PTDH-PCNA3_(R112C/T180C)-P450cam (Pseudomonas stutzeri | Sulfolobus solfataricus | Pseudomonas putida). Put plainly: SEC; non-denatured fusion proteins, masses estimated against globular protein standards.
The target is the same in data set [4]. Put plainly: dynamic light scattering; diameters of the PTDH-fused proteins compared with their counterparts without PTDH fusion.
Data set [5] concerns the molecule itself. Put plainly: SEC; non-denatured fusion proteins, masses estimated against globular protein standards.

Results on three molecules are retold here after PMC4346803, “Supramolecular protein assembly supports immobilization of a cytochrome P450 monooxygenase system as water-insoluble gel” (Scientific Reports, 2015).

Broadly, the stoichiometry N is a count of units in the complex or per binding partner. As to PTDH-PCNA1_(G108C)-PdR, the stoichiometry N in data set [1] and in data set [2] was 2 throughout.

In the case of PTDH-PCNA3_(R112C/T180C)-P450cam, the stoichiometry N in data set [3] and in data set [4] was 2 throughout.

B1: PTDH-PCNA2_(L171C)-PdX (other)
chain: MLPKLVITHRVHDEILQLLAPHCELMTNQTDSTLTREEILRRCRDAQAMMAFMPDRVDADFLQACPELRVVGCALKGFDNFDVDACTARGVWLTFVPDLLTVPTAELAIGLAVGLGRHLRAADAFVRSGEFQGWQPQFYGTGLDNATVGILGMGAIGLAMADRLQGWGATLQYHARKALDTQTEQRLGLRQVACSELFASSDFILLALPLNADTQHLVNAELLALVRPGALLVNPCRGSVVDEAAVLAALERGQLGGYAADVFEMEDWARADRPRLIDPALLAHPNTLFTPHIGSAVRAVRLEIERCAAQNIIQVLAGARPINAANRLPKAEPAACMKAKVIDAVSFSYILRTVGDFLSEANFIVTKEGIRVSGIDPSRVVFLDIFLPSSYFEGFEVSQEKEIIGFKLEDVNDILKRVLKDDTLILSSNESKLTLTFDGEFTRSFELPLIQVESTQPPSVNLEFPFKAQLLTITFADIIDELSDLGEVLNIHSKENKLYFEVIGDCSTAKVELSTDNGTLLEASGADVSSSYGMEYVANTTKMRRASDSMELYFGSQIPLKLRFKLPQEGYGDFYIAPRADSKVVYVSHDGTRRELDVADGVSLMQAAVSNGIYDIVGDCGGSASCATCHVYVNEAFTDKVPAANEREIGMLESVTAELKPNSRLSCQIIMTPELDGIVVDVPDRQW
On to B1, for which the “stoichiometry N” value in data set [5] is 2.
